# US20230235013A1 (MABSOLVE, published 2023)
# Target: T1, Histidine-tagged recombinant human FcγRI (CD64) (human, UniProt P12314 16-288)
# T1 construct: bought; also called Sino Biological Cat. No. 12056-H08H
# Assay: SPR, culture supernatant, captured His-FcγRI;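 further: biacore T200 SPR at 25 °C, anti-His capture, supernatants of HEK293 cells expressing IgG1 Fc variants injected 1 min, reference-subtracted response read 55 s after injection start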
row,Mean binding response [RU],Binder
1,25.3,"anti-CD20 human IgG1 L234D/L235I/G236R (antibody, also called 1-22; copies: 2 + 2) heavy: QVQLQQPGAELVKPGASVKMSCKASGYTFTSYNMHWVKQTPGRGLEWIGAIYPGNGDTSYNQKFKGKATLTADKSSSTAYMQLSSLTSEDSAVYYCARSTYYGGDWYFNVWGAGTTVTVSSASTKGPSVFPLAPSSKSTSGGTAALGCLVKDYFPEPVTVSWNSGALTSGVHTFPAVLQSSGLYSLSSVVTVPSSSLGTQTYICNVNHKPSNTKVDKKVEPKSCDKTHTCPPCPAPEDIRGPSVFLFPPKPKDTLMISRTPEVTCVVVDVSHEDPEVKFNWYVDGVEVHNAKTKPREEQYNSTYRVVSVLTVLHQDWLNGKEYKCKVSNKALPAPIEKTISKAKGQPREPQVYTLPPSRDELTKNQVSLTCLVKGFYPSDIAVEWESNGQPENNYKTTPPVLDSDGSFFLYSKLTVDKSRWQQGNVFSCSVMHEALHNHYTQKSLSLSPGK light: QIVLSQSPAILSASPGEKVTMTCRASSSVSYIHWFQQKPGSSPKPWIYATSNLASGVPVRFSGSGSGTSYSLTISRVEAEDAATYYCQQWTSNPPTFGGGTKLEIKRTVAAPSVFIFPPSDEQLKSGTASVVCLLNNFYPREAKVQWKVDNALQSGNSQESVTEQDSKDSTYSLSSTLTLSKADYEKHKVYACEVTHQGLSSPVTKSFNRGEC"
2,4.3,"anti-CD20 human IgG1 L234D/L235T/G236R (antibody, also called 1-30; 2-11; copies: 2 + 2) heavy: QVQLQQPGAELVKPGASVKMSCKASGYTFTSYNMHWVKQTPGRGLEWIGAIYPGNGDTSYNQKFKGKATLTADKSSSTAYMQLSSLTSEDSAVYYCARSTYYGGDWYFNVWGAGTTVTVSSASTKGPSVFPLAPSSKSTSGGTAALGCLVKDYFPEPVTVSWNSGALTSGVHTFPAVLQSSGLYSLSSVVTVPSSSLGTQTYICNVNHKPSNTKVDKKVEPKSCDKTHTCPPCPAPEDTRGPSVFLFPPKPKDTLMISRTPEVTCVVVDVSHEDPEVKFNWYVDGVEVHNAKTKPREEQYNSTYRVVSVLTVLHQDWLNGKEYKCKVSNKALPAPIEKTISKAKGQPREPQVYTLPPSRDELTKNQVSLTCLVKGFYPSDIAVEWESNGQPENNYKTTPPVLDSDGSFFLYSKLTVDKSRWQQGNVFSCSVMHEALHNHYTQKSLSLSPGK light: QIVLSQSPAILSASPGEKVTMTCRASSSVSYIHWFQQKPGSSPKPWIYATSNLASGVPVRFSGSGSGTSYSLTISRVEAEDAATYYCQQWTSNPPTFGGGTKLEIKRTVAAPSVFIFPPSDEQLKSGTASVVCLLNNFYPREAKVQWKVDNALQSGNSQESVTEQDSKDSTYSLSSTLTLSKADYEKHKVYACEVTHQGLSSPVTKSFNRGEC"
3,47,"anti-CD20 human IgG1 L234D/L235R/G236R (antibody, also called 1-28; copies: 2 + 2) heavy: QVQLQQPGAELVKPGASVKMSCKASGYTFTSYNMHWVKQTPGRGLEWIGAIYPGNGDTSYNQKFKGKATLTADKSSSTAYMQLSSLTSEDSAVYYCARSTYYGGDWYFNVWGAGTTVTVSSASTKGPSVFPLAPSSKSTSGGTAALGCLVKDYFPEPVTVSWNSGALTSGVHTFPAVLQSSGLYSLSSVVTVPSSSLGTQTYICNVNHKPSNTKVDKKVEPKSCDKTHTCPPCPAPEDRRGPSVFLFPPKPKDTLMISRTPEVTCVVVDVSHEDPEVKFNWYVDGVEVHNAKTKPREEQYNSTYRVVSVLTVLHQDWLNGKEYKCKVSNKALPAPIEKTISKAKGQPREPQVYTLPPSRDELTKNQVSLTCLVKGFYPSDIAVEWESNGQPENNYKTTPPVLDSDGSFFLYSKLTVDKSRWQQGNVFSCSVMHEALHNHYTQKSLSLSPGK light: QIVLSQSPAILSASPGEKVTMTCRASSSVSYIHWFQQKPGSSPKPWIYATSNLASGVPVRFSGSGSGTSYSLTISRVEAEDAATYYCQQWTSNPPTFGGGTKLEIKRTVAAPSVFIFPPSDEQLKSGTASVVCLLNNFYPREAKVQWKVDNALQSGNSQESVTEQDSKDSTYSLSSTLTLSKADYEKHKVYACEVTHQGLSSPVTKSFNRGEC"
4,17.6,"anti-CD20 human IgG1 L234E/G236R (antibody, also called 1-39; 2-15; copies: 2 + 2) heavy: not shown light: QIVLSQSPAILSASPGEKVTMTCRASSSVSYIHWFQQKPGSSPKPWIYATSNLASGVPVRFSGSGSGTSYSLTISRVEAEDAATYYCQQWTSNPPTFGGGTKLEIKRTVAAPSVFIFPPSDEQLKSGTASVVCLLNNFYPREAKVQWKVDNALQSGNSQESVTEQDSKDSTYSLSSTLTLSKADYEKHKVYACEVTHQGLSSPVTKSFNRGEC"
5,44.1,"anti-CD20 human IgG1 L234E/L235A/G236R (antibody, also called 1-32; copies: 2 + 2) heavy: not shown light: QIVLSQSPAILSASPGEKVTMTCRASSSVSYIHWFQQKPGSSPKPWIYATSNLASGVPVRFSGSGSGTSYSLTISRVEAEDAATYYCQQWTSNPPTFGGGTKLEIKRTVAAPSVFIFPPSDEQLKSGTASVVCLLNNFYPREAKVQWKVDNALQSGNSQESVTEQDSKDSTYSLSSTLTLSKADYEKHKVYACEVTHQGLSSPVTKSFNRGEC"
6,28.4,"anti-CD20 human IgG1 L234D/L235M/G236R (antibody, also called 1-25; copies: 2 + 2) heavy: QVQLQQPGAELVKPGASVKMSCKASGYTFTSYNMHWVKQTPGRGLEWIGAIYPGNGDTSYNQKFKGKATLTADKSSSTAYMQLSSLTSEDSAVYYCARSTYYGGDWYFNVWGAGTTVTVSSASTKGPSVFPLAPSSKSTSGGTAALGCLVKDYFPEPVTVSWNSGALTSGVHTFPAVLQSSGLYSLSSVVTVPSSSLGTQTYICNVNHKPSNTKVDKKVEPKSCDKTHTCPPCPAPEDMRGPSVFLFPPKPKDTLMISRTPEVTCVVVDVSHEDPEVKFNWYVDGVEVHNAKTKPREEQYNSTYRVVSVLTVLHQDWLNGKEYKCKVSNKALPAPIEKTISKAKGQPREPQVYTLPPSRDELTKNQVSLTCLVKGFYPSDIAVEWESNGQPENNYKTTPPVLDSDGSFFLYSKLTVDKSRWQQGNVFSCSVMHEALHNHYTQKSLSLSPGK light: QIVLSQSPAILSASPGEKVTMTCRASSSVSYIHWFQQKPGSSPKPWIYATSNLASGVPVRFSGSGSGTSYSLTISRVEAEDAATYYCQQWTSNPPTFGGGTKLEIKRTVAAPSVFIFPPSDEQLKSGTASVVCLLNNFYPREAKVQWKVDNALQSGNSQESVTEQDSKDSTYSLSSTLTLSKADYEKHKVYACEVTHQGLSSPVTKSFNRGEC"
7,30.9,"anti-CD20 human IgG1 L234E/L235E/G236R (antibody, also called 1-34; copies: 2 + 2) heavy: QVQLQQPGAELVKPGASVKMSCKASGYTFTSYNMHWVKQTPGRGLEWIGAIYPGNGDTSYNQKFKGKATLTADKSSSTAYMQLSSLTSEDSAVYYCARSTYYGGDWYFNVWGAGTTVTVSSASTKGPSVFPLAPSSKSTSGGTAALGCLVKDYFPEPVTVSWNSGALTSGVHTFPAVLQSSGLYSLSSVVTVPSSSLGTQTYICNVNHKPSNTKVDKKVEPKSCDKTHTCPPCPAPEEERGPSVFLFPPKPKDTLMISRTPEVTCVVVDVSHEDPEVKFNWYVDGVEVHNAKTKPREEQYNSTYRVVSVLTVLHQDWLNGKEYKCKVSNKALPAPIEKTISKAKGQPREPQVYTLPPSRDELTKNQVSLTCLVKGFYPSDIAVEWESNGQPENNYKTTPPVLDSDGSFFLYSKLTVDKSRWQQGNVFSCSVMHEALHNHYTQKSLSLSPGK light: QIVLSQSPAILSASPGEKVTMTCRASSSVSYIHWFQQKPGSSPKPWIYATSNLASGVPVRFSGSGSGTSYSLTISRVEAEDAATYYCQQWTSNPPTFGGGTKLEIKRTVAAPSVFIFPPSDEQLKSGTASVVCLLNNFYPREAKVQWKVDNALQSGNSQESVTEQDSKDSTYSLSSTLTLSKADYEKHKVYACEVTHQGLSSPVTKSFNRGEC"
8,26.5,"anti-CD20 human IgG1 L234D/L235N/G236R (antibody, also called 1-26; copies: 2 + 2) heavy: QVQLQQPGAELVKPGASVKMSCKASGYTFTSYNMHWVKQTPGRGLEWIGAIYPGNGDTSYNQKFKGKATLTADKSSSTAYMQLSSLTSEDSAVYYCARSTYYGGDWYFNVWGAGTTVTVSSASTKGPSVFPLAPSSKSTSGGTAALGCLVKDYFPEPVTVSWNSGALTSGVHTFPAVLQSSGLYSLSSVVTVPSSSLGTQTYICNVNHKPSNTKVDKKVEPKSCDKTHTCPPCPAPEDNRGPSVFLFPPKPKDTLMISRTPEVTCVVVDVSHEDPEVKFNWYVDGVEVHNAKTKPREEQYNSTYRVVSVLTVLHQDWLNGKEYKCKVSNKALPAPIEKTISKAKGQPREPQVYTLPPSRDELTKNQVSLTCLVKGFYPSDIAVEWESNGQPENNYKTTPPVLDSDGSFFLYSKLTVDKSRWQQGNVFSCSVMHEALHNHYTQKSLSLSPGK light: QIVLSQSPAILSASPGEKVTMTCRASSSVSYIHWFQQKPGSSPKPWIYATSNLASGVPVRFSGSGSGTSYSLTISRVEAEDAATYYCQQWTSNPPTFGGGTKLEIKRTVAAPSVFIFPPSDEQLKSGTASVVCLLNNFYPREAKVQWKVDNALQSGNSQESVTEQDSKDSTYSLSSTLTLSKADYEKHKVYACEVTHQGLSSPVTKSFNRGEC"
9,8.3,"anti-CD20 human IgG1 L234D/L235Q/G236R (antibody, also called 1-27; 2-9; copies: 2 + 2) heavy: QVQLQQPGAELVKPGASVKMSCKASGYTFTSYNMHWVKQTPGRGLEWIGAIYPGNGDTSYNQKFKGKATLTADKSSSTAYMQLSSLTSEDSAVYYCARSTYYGGDWYFNVWGAGTTVTVSSASTKGPSVFPLAPSSKSTSGGTAALGCLVKDYFPEPVTVSWNSGALTSGVHTFPAVLQSSGLYSLSSVVTVPSSSLGTQTYICNVNHKPSNTKVDKKVEPKSCDKTHTCPPCPAPEDQRGPSVFLFPPKPKDTLMISRTPEVTCVVVDVSHEDPEVKFNWYVDGVEVHNAKTKPREEQYNSTYRVVSVLTVLHQDWLNGKEYKCKVSNKALPAPIEKTISKAKGQPREPQVYTLPPSRDELTKNQVSLTCLVKGFYPSDIAVEWESNGQPENNYKTTPPVLDSDGSFFLYSKLTVDKSRWQQGNVFSCSVMHEALHNHYTQKSLSLSPGK light: QIVLSQSPAILSASPGEKVTMTCRASSSVSYIHWFQQKPGSSPKPWIYATSNLASGVPVRFSGSGSGTSYSLTISRVEAEDAATYYCQQWTSNPPTFGGGTKLEIKRTVAAPSVFIFPPSDEQLKSGTASVVCLLNNFYPREAKVQWKVDNALQSGNSQESVTEQDSKDSTYSLSSTLTLSKADYEKHKVYACEVTHQGLSSPVTKSFNRGEC"
10,27.2,"anti-CD20 human IgG1 L234D/L235V/G236R (antibody, also called 1-31; copies: 2 + 2) heavy: QVQLQQPGAELVKPGASVKMSCKASGYTFTSYNMHWVKQTPGRGLEWIGAIYPGNGDTSYNQKFKGKATLTADKSSSTAYMQLSSLTSEDSAVYYCARSTYYGGDWYFNVWGAGTTVTVSSASTKGPSVFPLAPSSKSTSGGTAALGCLVKDYFPEPVTVSWNSGALTSGVHTFPAVLQSSGLYSLSSVVTVPSSSLGTQTYICNVNHKPSNTKVDKKVEPKSCDKTHTCPPCPAPEDVRGPSVFLFPPKPKDTLMISRTPEVTCVVVDVSHEDPEVKFNWYVDGVEVHNAKTKPREEQYNSTYRVVSVLTVLHQDWLNGKEYKCKVSNKALPAPIEKTISKAKGQPREPQVYTLPPSRDELTKNQVSLTCLVKGFYPSDIAVEWESNGQPENNYKTTPPVLDSDGSFFLYSKLTVDKSRWQQGNVFSCSVMHEALHNHYTQKSLSLSPGK light: QIVLSQSPAILSASPGEKVTMTCRASSSVSYIHWFQQKPGSSPKPWIYATSNLASGVPVRFSGSGSGTSYSLTISRVEAEDAATYYCQQWTSNPPTFGGGTKLEIKRTVAAPSVFIFPPSDEQLKSGTASVVCLLNNFYPREAKVQWKVDNALQSGNSQESVTEQDSKDSTYSLSSTLTLSKADYEKHKVYACEVTHQGLSSPVTKSFNRGEC"
